Consider 140 substances from the supplement of paper PMC12042874.

± gives the uncertainty stated by the source.

A short description of the data set: amyloid nucleation score (Sup35N fusion, yeast selection) (log enrichment); library NNK2; higher = more nucleation; inactive = no reads after selection. Summed up: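 In psi-negative yeast, Sup35N fusions carrying peptides of 20 random codons were induced with 100 μM copper sulfate for 24 hours. The cells then grew 7 days at 30°C on medium lacking adenine and uracil, and plasmid inserts from input and output were Illumina-sequenced, excluding sequences with under 100 input reads. Nucleation score is the DiMSum log enrichment of output over input reads, centred on the mode score of non-aggregating sequences.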
For the substance SGTWMGAATY, the amyloid nucleation score was 3.62 ± 0.11.

Consider SGWWTKHRTMLKYYTLFAMG, for which the amyloid nucleation score is -0.449 ± 0.44.

Substance SGYPRRIYWLVGKCLWYHRA displayed an amyloid nucleation score of 0.921 ± 0.48.

SHGELEVAMPDTGNI showed an amyloid nucleation score of -0.378 ± 0.32.

Take SHMHEEHIVEECTCSTPRRK: the amyloid nucleation score worked out at 1.32 ± 0.44.

As to SHNFRISYKSCVLNSCMKRL, the amyloid nucleation score result is “inactive”.

In the case of SHNGHVLVPNRVVSITSCHR, the amyloid nucleation score turned out to be 0.147 ± 0.76.

Consider SHNVGYCSVSCSCTWWHSCV, for which the amyloid nucleation score entry was “inactive”.

SHTVGFSRAVRVCRGTDHT returned an amyloid nucleation score of 0.72 ± 0.38.

As to SHWLHGFSH, the amyloid nucleation score result is “inactive”.

Substance SIAHGQTSQNSTEWARVDG had an amyloid nucleation score of 0.387 ± 0.29.

On to SIDYD, for which the amyloid nucleation score was -0.627 ± 0.76.

Take SIFPRTCSNSACLWISSRKL: the amyloid nucleation score came out at 4.259 ± 0.042.

With SIFYLEGDHDLTTCTDLNTF, the amyloid nucleation score is 3.13 ± 0.094.

Substance SIHDQLGHYVFIV gave an amyloid nucleation score of -1.16 ± 0.62.

Take SIKGGSIEIEMYELESWVQL: the amyloid nucleation score was -0.791 ± 1.1.

In turn, SIQCMISWQDRDNVEACKVE came in with an amyloid nucleation score of 0.346 ± 0.21.

Consider SIRQTCKFGYIMAWL, for which the amyloid nucleation score turned out to be 7.064 ± 0.057.

The substance SIRSVILLCATLTSVGASLS came in with an amyloid nucleation score of 2.14 ± 0.14.

On to SISHQRMWKGCADEII, for which the amyloid nucleation score was -0.242 ± 1.1.

SISTSTGLRRHPYNGPKIGM yielded an amyloid nucleation score of -0.221 ± 0.32.

SITMELVYLPYQFMKSRRSW came in with an amyloid nucleation score of 4.35 ± 0.067.

The substance SIWYLGGC yielded an amyloid nucleation score of -0.02 ± 0.42.

SIYSSGNALTYQRIHNWVGI: the amyloid nucleation score is -0.953 ± 0.44.

SKCIASFNLRSYCMSRLASS: the amyloid nucleation score is -1.15 ± 1.1.

Regarding SKGIDSEIHKRHRVRD, the amyloid nucleation score is -0.206 ± 0.54.

For SKGRHVMGLGCEGNIWLKEL, the amyloid nucleation score is -0.377 ± 0.34.

For SKGYCWNVICSRVSFTTYAL, the amyloid nucleation score was determined as 6.77 ± 0.061.

SKKELLNAVPVGMG registered an amyloid nucleation score of 0.113 ± 0.63.

SKLEENIPKLVTRYQCGTGR displayed an amyloid nucleation score of 0.143 ± 0.37.

The substance SKSVWMRLVS came in with an amyloid nucleation score of -0.58 ± 0.24.

For the substance SLCPRYYGF, the amyloid nucleation score result was “inactive”.

SLDIDQTVRFTTK: the amyloid nucleation score came out at 5.618 ± 0.036.

Regarding SLEKMWCRLFKGSQT, the amyloid nucleation score was found to be 1.11 ± 0.12.

As to SLFQCNGSCVIYSYGILLYL, the amyloid nucleation score is 7.71 ± 0.082.

For the substance SLGNVELRQ, the amyloid nucleation score is -0.679 ± 0.29.

The substance SLIKKFMLCFVYQREAHLLS showed an amyloid nucleation score of 0.402 ± 0.8.

Take SLLIYQMYE: the amyloid nucleation score was -0.263 ± 0.76.

As to SLLMNMS, the amyloid nucleation score worked out at 0.269 ± 0.37.

With SLLRIRQYVVWRLG, the amyloid nucleation score worked out at 0.079 ± 0.6.

SLMWDGANLYCMMVYSSVRN gave an amyloid nucleation score of 0.182 ± 1.1.

Substance SLNRTTSSLVRW gave an amyloid nucleation score of 6.029 ± 0.037.

As to SLPDRKIKWESGGP, the amyloid nucleation score was determined as 0.646 ± 0.33.

SLPGLGFLRLFFQ showed an amyloid nucleation score of 0.089 ± 0.55.

As to SLQFVGYYFPFNRVCARSGA, the amyloid nucleation score was -0.913 ± 0.45.

The substance SLQGVM displayed an amyloid nucleation score of -1.04 ± 0.44.

SLSCSESGVKNRKVVELGWM showed an amyloid nucleation score of 0.432 ± 0.32.

The substance SLSVSTAVIVITLTNGEFIG returned an amyloid nucleation score of 2.64 ± 0.1.

Consider SLSYDWFASHLWTYDGW, for which the amyloid nucleation score is -1.03 ± 0.34.

As for SLTAVWDDLAMLKLWAEMEM, the amyloid nucleation score was determined as 0.053 ± 1.1.

In the case of SLTGSQSGQGDLCVLVRYNH, the amyloid nucleation score came to 3.84 ± 0.12.

Substance SLTSSSICHRPHTCTVCV came in with an amyloid nucleation score of -0.364 ± 0.33.

Substance SLVIYV came in with an amyloid nucleation score of -1.42 ± 0.62.

On to SLYFLTGWSFMMDQGVSTPC, for which the amyloid nucleation score was found to be 6.934 ± 0.058.

On to SLYLNKSSSSGRIQLYGLFT, for which the amyloid nucleation score is 0.049 ± 1.1.

SLYVGFNRFFIRPVCCEVRG came in with an amyloid nucleation score of -0.608 ± 1.1.

Consider SMAFREILLLMGSMLSCIRS, for which the amyloid nucleation score was -0.956 ± 1.

SMASGILCDAAYNACSQGCG: the amyloid nucleation score amounted to 0.632 ± 0.48.

Substance SMDRLRRDGYLGSVVCYNRS showed an amyloid nucleation score of -0.935 ± 0.54.

As to SMFLMSCTDGVFHNRNLHVI, the amyloid nucleation score is -0.662 ± 0.44.

Regarding SMGINSGGRWRADSVSVGLR, the amyloid nucleation score stood at 0.786 ± 0.23.

SMLRY displayed an amyloid nucleation score of 0.171 ± 0.6.

SMLSSMYFKFPL gave an amyloid nucleation score of 2.07 ± 0.16.

In turn, SMNFRTTSSHSDILYPALC displayed an amyloid nucleation score of 0.24 ± 0.48.

Consider SMRYDRDNHKHPFNIEAMRY, for which the amyloid nucleation score was -0.096 ± 0.46.

With SMSLRTCSLSFVSWMKFKDG, the amyloid nucleation score was 0.095 ± 0.45.

Regarding SMTTH, the amyloid nucleation score was -0.777 ± 0.36.

In the case of SMVFFGPFIFYVANPITSFV, the amyloid nucleation score was found to be 5.54 ± 0.068.

For the substance SMYPGLDT, the amyloid nucleation score is -0.353 ± 0.79.

As for SNDLTCTYVRIQCWAMEPAS, the amyloid nucleation score turned out to be 5.142 ± 0.039.

Turning to SNFSMVCAVCV, the amyloid nucleation score was determined as 0.454 ± 0.34.

As to SNFVQSGG, the amyloid nucleation score came out at 0.138 ± 0.46.

In turn, SNGFGCAEVSGYYVSN showed an amyloid nucleation score of -0.691 ± 0.79.

For SNGFREYCATICNGTGDRRG, the amyloid nucleation score is 0.651 ± 0.62.

SNIYRCPVMSIRSVSHS returned an amyloid nucleation score of 0.536 ± 0.66.

SNLLWAKSGPKAVWKPGRWD showed an amyloid nucleation score of 0.423 ± 0.41.

Turning to SNSFVVFSRVVTRKFVCVLW, the amyloid nucleation score was -0.691 ± 0.46.

Take SNWCGFSSTIKSESY: the amyloid nucleation score entry is “inactive”.

Consider SNYVFTNRGLIFRDFRVSDE, for which the amyloid nucleation score stood at 5.56 ± 0.086.

Consider SPFIRHLNGSICRDNYFYVG, for which the amyloid nucleation score was found to be 3.03 ± 0.063.

In the case of SPHLGLMCK, the amyloid nucleation score was 0.416 ± 0.8.

On to SPKRFTCSGDCSR, for which the amyloid nucleation score was -0.573 ± 0.78.

As for SPSLVTNFVENGFFGVDLLS, the amyloid nucleation score entry is “inactive”.

Substance SPSTAMFGPMYSVCIHCEYL registered an amyloid nucleation score of 7.395 ± 0.051.

As to SPTER, the amyloid nucleation score amounted to 0.053 ± 0.65.

Consider SPWKTFMQVLWDTWVARVCL, for which the amyloid nucleation score came out at 0.515 ± 0.28.

For the substance SQKLSIQYQLRYFILLVKPR, the amyloid nucleation score is -0.704 ± 0.5.

In the case of SQRHRAFTSWRGLMRYN, the amyloid nucleation score was -0.476 ± 1.1.

The substance SQRRKQLEYHAVLWY had an amyloid nucleation score of -0.289 ± 0.76.

Take SQTMVITFFSRCDVQIVKIN: the amyloid nucleation score worked out at 5.583 ± 0.03.

For the substance SRAIECVRIYTFNSHSWFIA, the amyloid nucleation score was -1.38 ± 1.1.

SRDAKRALFDLDHRTRWDHK yielded an amyloid nucleation score of 4.62 ± 0.079.

The substance SREINITLGKTFYPSRMYGV yielded an amyloid nucleation score of 4.48 ± 0.05.

In turn, SREYDCYLWRNLVWNCWMNW showed an amyloid nucleation score of 5.638 ± 0.048.

In turn, SRFCSIIITMNVNHLPV displayed an amyloid nucleation score of 5.79 ± 0.068.

In the case of SRIIYMPPPVCHESLGKRPV, the amyloid nucleation score is -0.296 ± 0.63.

As to SRLGVFMYANVLWGKQSRND, the amyloid nucleation score was 6.267 ± 0.058.

Turning to SRLVVRN, the amyloid nucleation score result is “inactive”.

In the case of SRPFMIYREYVASSIVSNQL, the amyloid nucleation score is -0.606 ± 0.29.

As to SRPMTWGRKDVGSGSLQDYA, the amyloid nucleation score was determined as 0.248 ± 0.33.

Substance SRTDRLDGCAWLLYDCTMGD showed an amyloid nucleation score of -0.211 ± 0.53.

SRTDVPSTMLLSESRAVNYY returned an amyloid nucleation score of -0.569 ± 1.1.

On to SRTYATRLQLM, for which the amyloid nucleation score turned out to be 0.007 ± 0.76.

As for SRVEVNALVLISYYPVLDTA, the amyloid nucleation score was found to be 5.736 ± 0.039.

Turning to SRVIVTDFVNSNATA, the amyloid nucleation score is 0.218 ± 0.51.

Take SSCGYLKTTFSKLSEAHCYR: the amyloid nucleation score is -1.45 ± 1.1.

Substance SSCRGIEWRFQTGNITQWLG showed an amyloid nucleation score of -0.165 ± 0.23.

Regarding SSDLAGQRLSLCWVLCTG, the amyloid nucleation score came to 0.474 ± 0.53.

Regarding SSFAARRR, the amyloid nucleation score came out at 0.276 ± 0.28.

SSFLATVSVQCNDRYNSHRS gave an amyloid nucleation score of 4.26 ± 0.064.

The substance SSIRLFCFTMAHVHMTDSHD registered an amyloid nucleation score of 4.53 ± 0.11.

Turning to SSIWPIPFYILGVFKVSSVW, the amyloid nucleation score result was “inactive”.

On to SSKETGRRTVDRFQYMTRYR, for which the amyloid nucleation score worked out at 1.94 ± 0.32.

SSLFYERRIQLCVFI yielded an amyloid nucleation score of 3.63 ± 0.077.

The substance SSLNHNPGWTEIYELHLVGF yielded an amyloid nucleation score of 0.27 ± 0.8.

On to SSMILLVYCPYVPWNRSRR, for which the amyloid nucleation score worked out at 4.8 ± 0.041.

Take SSQSRSISYGLGNCWSWWL: the amyloid nucleation score turned out to be 2.71 ± 0.081.

In turn, SSRNASGYAWRVSNCVCVWG registered an amyloid nucleation score of 7.9 ± 0.079.

Turning to SSRQSW, the amyloid nucleation score worked out at 0.082 ± 1.

In turn, SSRTMRFNVRG gave an amyloid nucleation score of 0.722 ± 0.26.

As for SSSLSWLS, the amyloid nucleation score was -0.609 ± 0.76.

SSSWSNTHRFCLRTL: the amyloid nucleation score result is “inactive”.

Take SSVISLNILFFMGEPENSLL: the amyloid nucleation score worked out at 6.424 ± 0.05.

Substance SSVMPAVIAFACCCNKSTFA returned an amyloid nucleation score of -0.237 ± 0.38.

For SSYGIFVVGMLGSCRVQSRF, the amyloid nucleation score was 3.79 ± 0.041.

With SSYKTLPAMLVARMLINYTV, the amyloid nucleation score was -1.02 ± 0.45.

For SSYLGMENQRLMRKESGCCL, the amyloid nucleation score is 0.09 ± 0.41.

The substance SSYTKMC had an amyloid nucleation score of -0.934 ± 0.78.

STCGEAVKTFLVGLFELFMV gave an amyloid nucleation score of 0.452 ± 0.66.

Regarding STCSTGHRSLRTKKRNSILS, the amyloid nucleation score came to 4.34 ± 0.096.

As to STCVCYGSFCEASLWASLDG, the amyloid nucleation score came to 6.58 ± 0.075.

For STLVDGGTGYMCYFFAWHQS, the amyloid nucleation score entry was “inactive”.

In turn, STQYPTMVERLS returned an amyloid nucleation score of 1.75 ± 0.3.

In turn, STRDQQWMMRNRG had an amyloid nucleation score of -0.381 ± 0.79.

Substance STSRCMRLHWGTFNYCSNIF had an amyloid nucleation score of 0.721 ± 0.35.

STSVTMHSLSDF returned an amyloid nucleation score of -1.02 ± 0.78.

In the case of STTHHARRFVSHESACLGAV, the amyloid nucleation score amounted to 1.11 ± 0.17.

In turn, STVPRVSLLLAPCQVIVAWE came in with an amyloid nucleation score of 5.449 ± 0.05.

The substance STVWVFRYYNNYWYDQRTLP gave an amyloid nucleation score of 6.807 ± 0.054.

STWHLFWSP: the amyloid nucleation score amounted to 0.654 ± 0.26.
